The source of these data is patent US20130109737A1 (published 2013).

B1: Med23 (other, mouse (murine ES cells), UniProt Q80YQ2 1-1367, looked up)
chain: METQLQSIFEEVVKTEIIEEAFPGMFMDTPEDEKTKLISCLAAFRQFWSGLSQESHEQCVQWIVKFIHGQHSPKRISFLYDCLAMAVETGLLPPRMVCESLINSDSLEWERTQLWALTFKLVRKIIGGVDYKGVRDLLKAILEKILTIPNTVSSAVVQQLLAAREVIAYILERNACLLPAYFAVTEIRKLYPEGKLPHWLLGNLVSDFVDTFRPTARINSICGRCSLLPVVNNSGAICNSWKLDPATLRFPLKGLLPYDKDLFEPQTALLRYVLEQPYSRDMVCNMLGLNKQHKQRCPVLEDQLVDLVVYAMERSETEEKFDDGGTSQLLWQHLSSQLIFFVLFQFASFPHMVLSLHQKLAGRGLIKGRDHLMWVLLQFISGSIQKNALADFLPVMKLFDLLYPEKECIPVPDINKPQSTHAFAMTCIWIHLNRKAQNGDSTLQIPIPHSLKLHHEFLQQSLRNKSLQMNDYKIALLCNAYSTNSECFTLPMGALVETIYGNGIMRVPLPGTSCLASASVTPLPMNLLDSLTVHAKMSLIHSIATRVIKLAHTKSSVALAPALVETYSRLLVYMEIESLGIKGFISQLLPTVFKSHAWGILHTLLEMFSHRMHHIQPHYRVQLLSHLHTLAAVAQTNQNQLHLCVESTALRLITALGSSEVQPQFTRFLNDPKTVLSAESEELNRALILTLARATHVTDFFTGSDSIQGTWCKDILQTIMNFTPHNWASHTLSCFPAPLQAFFKQNNVPQESRFNLKKNVEEEYRKWKSMTDENEIITQFSVQGFPPLFLCLLWKMLLETDHISQIGYKVLERIGARALVAHVRTFADFLVYEFSTSAGGQQLNKCIEILNDMVWKYNIVTLDRLILCLAMRSHEGNEAQVCYFIIQLLLLKPNDFRNRVSDFVKENSPEHWLQSDWHTKHMSYHKKYPEKLYFEGLAEQVDPPVPIQSPYLPIYFGNVCLRFLPVFDIVIHRFLELLPVSKSLETLLDHLGGLYKFHDRPVTYLYNTLHYYEMCLRNRDHLKRKLVHAIIGSLKDNRPQGWCLSDTYLKHAMNAREDNPWVPEDSYYCKLIGRLVDTMAGKSPGPFPNCDWRFNEFPNPAAHALHVTCVELMALAVPGKDVGNALLNVVLKSQPLVPRENITAWMNAIGLIITALPEPYWIVLHDRIVNVISSSSLTSETEWVGYPFRLFDFTACHQSYSEMSCSYTLALAHAVWHHSSIGQLSLIPKFLTEALLPVVKTEFQLLYVYHLVGPFLQRFQQERTRCMIEIGVAFYDMLLNVDQCSTHLNYMDPICDFLYHMKYMFTGDSVKEQVEKIICNLKPALKLRLRFITHISKMEPAVPPQALNSGSPAPQSNQVPASLPVTQ
notes: Endogenous protein in crosslinked chromatin or nuclear extract of V6.5 murine ES cells; also called mediator subunit Med23
B2: Smc3 (other, mouse (murine ES cells), UniProt Q9CW03 1-1217, looked up)
chain: MYIKQVIIQGFRSYRDQTIVDPFSSKHNVIVGRNGSGKSNFFYAIQFVLSDEFSHLRPEQRLALLHEGTGPRVISAFVEIIFDNSDNRLPIDKEEVSLRRVIGAKKDQYFLDKKMVTKNDVMNLLESAGFSRSNPYYIVKQGKINQMATAPDSQRLKLLREVAGTRVYDERKEESISLMKETEGKREKINELLKYIEERLHTLEEEKEELAQYQKWDKMRRALEYTIYNQELNETRAKLDELSAKRETSGEKSRQLRDAQQDARDKMEDIERQVRELKTKISAMKEEKEQLSAERQEQIKQRTKLELKAKDLQDELAGNSEQRKRLLKERQKLLEKIEEKQKELAETEPKFNSVKEKEERGIARLAQATQERTDLYAKQGRGSQFTSKEERDKWIKKELKSLDQAINDKKRQIAAIHKDLEDTEANKEKNLEQYNKLDQDLNEVKARVEELDRKYYEVKNKKDELQSERNYLWREENAEQQALAAKREDLEKKQQLLRAATGKAILNGIDSINKVLEHFRRKGINQHVQNGYHGIVMNNFECEPAFYTCVEVTAGNRLFYHIVDSDEVSTKILMEFNKMNLPGEVTFLPLNKLDVRDTAYPETNDAIPMISKLRYNPRFDKAFKHVFGKTLICRSMEVSTQLARAFTMDCITLEGDQVSHRGALTGGYYDTRKSRLELQKDVRKAEEELGELEAKLNENLRRNIERINNEIDQLMNQMQQIETQQRKFKASRDSILSEMKMLKEKRQQSEKTFMPKQRSLQSLEASLHAMESTRESLKAELGTDLLSQLSLEDQKRVDALNDEIRQLQQENRQLLNERIKLEGIITRVETYLNENLRKRLDQVEQELNELRETEGGTVLTATTSELEAINKRVKDTMARSEDLDNSIDKTEAGIKELQKSMERWKNMEKEHMDAINHDTKELEKMTNRQGMLLKKKEECMKKIRELGSLPQEAFEKYQTLSLKQLFRKLEQCNTELKKYSHVNKKALDQFVNFSEQKEKLIKRQEELDRGYKSIMELMNVLELRKYEAIQLTFKQVSKNFSEVFQKLVPGGKATLVMKKGDVEGSQSQDEGEGSGESERGSGSQSSVPSVDQFTGVGIRVSFTGKQGEMREMQQLSGGQKSLVALALIFAIQKCDPAPFYLFDEIDQALDAQHRKAVSDMIMELAVHAQFITTTFRPELLESADKFYGVKFRNKVSHIDVITAEMAKDFVEDDTTHG
notes: Endogenous protein of murine ES cells; also called cohesin core complex protein Smc3
B3: Smc1a (other, mouse (murine ES cells), UniProt Q9CU62 1-1233, looked up)
chain: MGFLKLIEIENFKSYKGRQIIGPFQRFTAIIGPNGSGKSNLMDAISFVLGEKTSNLRVKTLRDLIHGAPVGKPAANRAFVSMVYSEEGAEDRTFARVIVGGSSEYKINNKVVQLHEYSEELEKLGILIKARNFLVFQGAVESIAMKNPKERTALFEEISRSGELAQEYDKRKKEMVKAEEDTQFNYHRKKNIAAERKEAKQEKEEADRYQRLKDEVVRAQVQLQLFKLYHNEVEIEKLNKELASKNKEIEKDKKRMDKVEDELKEKKKELGKMMREQQQIEKEIKEKDSELNQKRPQYIKAKENTSHKIKKLEAAKKSLQNAQKHYKKRKGDMDELEKEMLSVEKARQEFEERMEEESQSQGRDLTLEENQVKKYHRLKEEASKRAATLAQELEKFNRDQKADQDRLDLEERKKVETEAKIKQKLREIEENQKRIEKLEEYITTSKQSLEEQKKLEGELTEEVEMAKRRIDEINKELNQVMEQLGDARIDRQESSRQQRKAEIMESIKRLYPGSVYGRLIDLCQPTQKKYQIAVTKVLGKNMDAIIVDSEKTGRDCIQYIKEQRGEPETFLPLDYLEVKPTDEKLRELKGAKLVIDVIRYEPPHIKKALQYACGNALVCDNVEDARRIAFGGHQRHKTVALDGTLFQKSGVISGGASDLKAKARRWDEKAVDKLKEKKERLTEELKEQMKAKRKEAELRQVQSQAHGLQMRLKYSQSDLEQTKTRHLALNLQEKSKLESELANFGPRINDIKRIIQSREREMKDLKEKMNQVEDEVFEEFCREIGVRNIREFEEEKVKRQNEIAKKRLEFENQKTRLGIQLDFEKNQLKEDQDKVHMWEQTVKKDENEIEKLKKEEQRHMKIIDETMAQLQDLKNQHLAKKSEVNDKNHEMEEIRKKLGGANKEMTHLQKEVTAIETKLEQKRSDRHNLLQACKMQDIKLPLSKGTMDDISQEEGSSQGEESVSGSQRTSSIYAREALIEIDYGDLCEDLKDAQAEEEIKQEMNTLQQKLNEQQSVLQRIAAPNMKAMEKLESVRDKFQETSDEFEAARKRAKKAKQAFEQIKKERFDRFNACFESVATNIDEIYKALSRNSSAQAFLGPENPEEPYLDGINYNCVAPGKRFRPMDNLSGGEKTVAALALLFAIHSYKPAPFFVLDEIDAALDNTNIGKVANYIKEQSTCNFQAIVISLKEEFYTKAESLIGVYPEQGDCVISKVLTFDLTKYPDANPNPNEQ
notes: Endogenous protein of murine ES cells; also called cohesin core complex protein Smc1a

One assay concerns the target T1, Med1 (mouse (murine ES cells), UniProt Q925J9 1-1575).
T1 construct: Endogenous protein immunoprecipitated from crosslinked murine ES cell chromatin; also called CRSP1/TRAP220; mediator subunit Med1
As to the kind of experiment: ChIP-western: IP of crosslinked, sheared murine ES cell chromatin with anti-Med1, western blot for Med23. An excerpt: (§1) FIG. 3 Mediator and cohesin interact. a, Mediator (Med23) is detected by western blot (WB) when crosslinked, sheared chromatin is subjected to immunoprecipitation with antibodies against mediator (Med1, Med12) or cohesin (Smc1a, Smc3). WCE, whole-cell extract. b, Cohesin (Smc1a, Smc3) and mediator (Med23) are detected by western blot after immunoprecipitation of uncrosslinked ES cell nuclear extracts (NE) with a Nipb1 antibody. c, Cohesin (Smc3) and Nipb1 co-purify with mediator. The input fractions and immunoprecipitated eluate (IP Eluate) were examined by western blot and silver staining. Molecular weight (MW) markers (kDa) are shown.
(§2) For ChIP-Western, same conditions as for ChIP-Seq were used. For co-immunoprecipitation, murine ES cells were harvested in cold PBS and extracted for 30 min at 4° C. in TNEN250 (50 mM Tris pH 7.5, 5 mM EDTA, 250 mM NaCl, 0.1% NP-40) with protease inhibitors. After centrifugation, supernatant was mixed to 2 volumes of TNENG (50 mM Tris pH 7.5, 5 mM EDTA, 100 mM NaCl, 0.1% NP-40, 10% glycerol).

The next assay has as its target T2, Med12 (mouse (murine ES cells), UniProt A2AGH6 1-2190).
T2 construct: Endogenous protein immunoprecipitated from crosslinked murine ES cell chromatin; also called mediator subunit Med12
As to the kind of experiment: ChIP-western: IP of crosslinked, sheared murine ES cell chromatin with anti-Med12, western blot for Med23.
From the text: as §1, §2
On the technique in general: A western blot detects proteins with antibodies after separation by electrophoresis.

For assay [1], the target named is B1. As to the kind of experiment: ChIP-western: IP of crosslinked, sheared murine ES cell chromatin with anti-Smc3, western blot for Med23.
From the text: as §1, §2

The target in assay [2] is B1. The assay can be described thus: ChIP-western: IP of crosslinked, sheared murine ES cell chromatin with anti-Smc1a, western blot for Med23.
From the text: as §1, §2

T1 sequence (Q925J9 whole entry): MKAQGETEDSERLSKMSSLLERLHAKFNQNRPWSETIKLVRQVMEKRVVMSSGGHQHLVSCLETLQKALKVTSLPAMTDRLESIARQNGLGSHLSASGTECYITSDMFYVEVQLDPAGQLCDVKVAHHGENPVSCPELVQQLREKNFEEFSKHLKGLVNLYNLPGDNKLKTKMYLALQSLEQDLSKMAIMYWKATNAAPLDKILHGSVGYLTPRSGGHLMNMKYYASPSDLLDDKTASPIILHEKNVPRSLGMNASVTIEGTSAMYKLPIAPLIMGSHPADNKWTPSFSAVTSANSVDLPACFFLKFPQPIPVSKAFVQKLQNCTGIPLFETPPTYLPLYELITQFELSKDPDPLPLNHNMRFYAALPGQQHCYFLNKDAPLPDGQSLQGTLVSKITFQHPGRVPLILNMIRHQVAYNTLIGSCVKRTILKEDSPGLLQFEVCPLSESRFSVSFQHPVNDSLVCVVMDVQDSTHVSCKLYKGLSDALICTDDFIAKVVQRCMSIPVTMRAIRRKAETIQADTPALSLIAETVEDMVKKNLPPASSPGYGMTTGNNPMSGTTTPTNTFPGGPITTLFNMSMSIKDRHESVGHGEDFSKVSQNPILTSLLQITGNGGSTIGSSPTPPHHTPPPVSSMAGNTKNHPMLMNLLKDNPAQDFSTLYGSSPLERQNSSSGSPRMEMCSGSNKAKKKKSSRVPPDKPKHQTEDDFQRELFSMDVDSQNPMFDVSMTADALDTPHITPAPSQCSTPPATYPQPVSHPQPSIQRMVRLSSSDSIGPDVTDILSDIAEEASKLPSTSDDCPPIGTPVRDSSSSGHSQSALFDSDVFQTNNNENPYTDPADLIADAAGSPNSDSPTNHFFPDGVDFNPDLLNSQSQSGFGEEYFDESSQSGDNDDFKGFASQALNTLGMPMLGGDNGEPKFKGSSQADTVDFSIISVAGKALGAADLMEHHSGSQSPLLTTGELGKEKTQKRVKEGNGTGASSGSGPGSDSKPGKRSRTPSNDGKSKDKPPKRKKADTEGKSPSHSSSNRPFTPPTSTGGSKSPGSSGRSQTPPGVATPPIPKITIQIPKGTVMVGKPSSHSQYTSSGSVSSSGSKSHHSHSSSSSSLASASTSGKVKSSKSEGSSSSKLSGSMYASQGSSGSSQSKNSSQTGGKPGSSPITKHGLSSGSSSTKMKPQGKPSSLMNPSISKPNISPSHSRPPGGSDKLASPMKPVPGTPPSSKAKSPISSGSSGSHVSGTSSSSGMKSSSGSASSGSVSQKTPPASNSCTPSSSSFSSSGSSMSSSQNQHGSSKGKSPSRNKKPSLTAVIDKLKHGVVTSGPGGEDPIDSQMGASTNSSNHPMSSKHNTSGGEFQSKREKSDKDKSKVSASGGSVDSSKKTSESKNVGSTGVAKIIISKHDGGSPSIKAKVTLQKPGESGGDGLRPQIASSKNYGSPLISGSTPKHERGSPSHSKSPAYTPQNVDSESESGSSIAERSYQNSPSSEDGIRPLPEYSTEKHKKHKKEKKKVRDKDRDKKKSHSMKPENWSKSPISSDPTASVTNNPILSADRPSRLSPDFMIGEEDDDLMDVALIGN
T2 sequence (A2AGH6 whole entry): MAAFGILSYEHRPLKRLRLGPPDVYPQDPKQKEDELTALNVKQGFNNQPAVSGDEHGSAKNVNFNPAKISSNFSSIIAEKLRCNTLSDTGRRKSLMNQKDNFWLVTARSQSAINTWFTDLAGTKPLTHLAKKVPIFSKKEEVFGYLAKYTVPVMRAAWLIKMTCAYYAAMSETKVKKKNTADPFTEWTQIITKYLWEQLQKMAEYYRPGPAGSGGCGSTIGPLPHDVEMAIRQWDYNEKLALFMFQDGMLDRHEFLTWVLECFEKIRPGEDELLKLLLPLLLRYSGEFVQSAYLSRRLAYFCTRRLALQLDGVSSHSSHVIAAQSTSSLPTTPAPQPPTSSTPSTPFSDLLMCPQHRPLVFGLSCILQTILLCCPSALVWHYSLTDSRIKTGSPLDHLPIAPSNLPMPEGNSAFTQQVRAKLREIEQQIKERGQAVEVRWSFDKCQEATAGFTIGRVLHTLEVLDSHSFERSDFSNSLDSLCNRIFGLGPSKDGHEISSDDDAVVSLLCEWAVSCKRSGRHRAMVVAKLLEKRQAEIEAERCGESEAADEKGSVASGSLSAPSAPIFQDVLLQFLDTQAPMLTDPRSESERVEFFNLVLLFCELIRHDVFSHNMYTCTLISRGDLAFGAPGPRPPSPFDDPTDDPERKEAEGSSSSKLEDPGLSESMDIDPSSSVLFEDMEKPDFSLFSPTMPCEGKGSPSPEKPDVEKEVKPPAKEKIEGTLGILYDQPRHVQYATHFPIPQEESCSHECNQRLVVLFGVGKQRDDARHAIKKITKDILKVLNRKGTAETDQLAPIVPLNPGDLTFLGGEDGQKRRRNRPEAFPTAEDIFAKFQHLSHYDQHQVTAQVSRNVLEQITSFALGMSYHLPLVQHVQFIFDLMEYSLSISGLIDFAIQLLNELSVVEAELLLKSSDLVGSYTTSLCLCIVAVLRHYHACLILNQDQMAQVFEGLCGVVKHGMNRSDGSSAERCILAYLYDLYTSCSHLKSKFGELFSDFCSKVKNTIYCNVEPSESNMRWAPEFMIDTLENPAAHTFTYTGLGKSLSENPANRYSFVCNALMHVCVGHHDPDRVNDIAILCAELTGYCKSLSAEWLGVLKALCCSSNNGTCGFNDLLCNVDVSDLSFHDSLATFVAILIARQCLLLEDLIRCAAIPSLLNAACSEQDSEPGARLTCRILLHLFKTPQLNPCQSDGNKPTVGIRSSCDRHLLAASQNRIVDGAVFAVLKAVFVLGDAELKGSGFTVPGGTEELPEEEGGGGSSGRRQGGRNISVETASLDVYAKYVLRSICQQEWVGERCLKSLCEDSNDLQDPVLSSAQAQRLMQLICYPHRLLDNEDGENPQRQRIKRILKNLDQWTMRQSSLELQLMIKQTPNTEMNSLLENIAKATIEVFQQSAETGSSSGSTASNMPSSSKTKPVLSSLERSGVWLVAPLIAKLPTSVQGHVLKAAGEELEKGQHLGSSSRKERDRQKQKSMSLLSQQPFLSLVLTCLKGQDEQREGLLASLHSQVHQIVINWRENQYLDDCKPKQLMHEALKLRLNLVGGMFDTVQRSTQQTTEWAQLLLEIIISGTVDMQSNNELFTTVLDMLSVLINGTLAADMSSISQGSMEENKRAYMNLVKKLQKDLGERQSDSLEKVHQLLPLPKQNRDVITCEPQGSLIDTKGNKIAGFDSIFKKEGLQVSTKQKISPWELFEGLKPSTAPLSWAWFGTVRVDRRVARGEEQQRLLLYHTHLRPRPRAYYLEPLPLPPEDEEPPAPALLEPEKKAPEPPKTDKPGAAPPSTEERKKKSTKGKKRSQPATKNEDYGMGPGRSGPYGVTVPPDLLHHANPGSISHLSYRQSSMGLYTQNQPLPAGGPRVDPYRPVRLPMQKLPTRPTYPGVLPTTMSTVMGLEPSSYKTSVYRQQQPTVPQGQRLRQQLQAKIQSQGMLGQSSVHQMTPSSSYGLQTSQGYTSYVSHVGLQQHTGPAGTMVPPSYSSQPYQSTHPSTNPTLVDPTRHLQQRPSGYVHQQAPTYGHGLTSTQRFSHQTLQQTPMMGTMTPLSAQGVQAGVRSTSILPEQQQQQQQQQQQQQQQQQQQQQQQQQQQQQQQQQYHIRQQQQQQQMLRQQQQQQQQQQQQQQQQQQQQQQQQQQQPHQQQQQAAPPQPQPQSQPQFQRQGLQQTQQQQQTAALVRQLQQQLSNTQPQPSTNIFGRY

Turning to B1, the binding result in the assay with Med1 and with Med12 was “binds” each time.

B2: in the assay with Med23 [1], the binding result is “binds”.

Consider B3, for which the binding result with Med23 [2] is “binds”.
